{"source": "patent US5474928A", "about": "“Arginine deiminase from a Mycoplasma arginini strain” (Nippon Mining Company, Limited, priority 1989, dated 1995)", "proteins": {"B1": {"name": "Mycoplasma arginini (IFO 14476) arginine deiminase (EC 3.5.3.6), present invention, amino acid sequence of FIG. 4 (Mycoplasmopsis arginini) (protein)", "chain": "MSVFDSKFKGIHVYSEIGELESVLVHEPGREIDYITPARLDELLFSAILESHDARKEHKQFVAELKANDINVVELIDLVAETYDLASQEAKDKLIEEFLEDSEPVLSEEHKVVVRNFLKAKKTSRELVEIMMAGITKYDLGIEADHELIVDPMPNLYFTRDPFASVGNGVTIHYMRYKVRQRETLFSRFVFSNHPKLINTPWYYDPSLKLSIEGGDVFIYNNDTLVVGVSERTDLQTVTLLAKNIVANKECEFKRIVAINVPKWTNLMHLDTWLTMLDKDKFLYSPIANDVFKFWDYDLVNGGAEPQPVENGLPLEGLLQSIINKKPVLIPIAGEGASQMEIERETHFDGTNYLAIRPGVVIGYSRNEKTNAALEAAGIKVLPFHGNQLSLGMGNARCMSMPLSRKDVKW", "notes": "Arginine deiminase was purified from the M. arginini cell extract; endogenous in cells; host or cells: Mycoplasma arginini IFO 14476 cells (strain from the Institute for Fermentation, Osaka); enzyme purified in house by three chromatography steps"}}, "substrate": "N=C(N)NCCC[C@H](N)C(=O)O", "assay": "Km determination by Lineweaver-Burk plot analysis, citrulline formation assay", "assay_type": "biochemical, Mycoplasma arginini", "settings": "other: purified enzyme from M. arginini, substrate L-arginine, pH 7.0", "method": "The activity of arginine deiminase can be determined by causing it to produce citrulline using the method reported by Fenske et. al. [J. Bacteriol. 126, 501-510 (1976)], and by measuring the amount of the yields using the method given by Archibald [J. Biol. Chem. 156, 121-142 (1944)].\nSpecifically, 20 μl of arginine deiminase solution is added to 1.0 ml of 10 mM arginine [dissolved in 0.1M phosphate buffer of pH 7.0], then an enzyme reaction is allowed to take place at 37° C. for 10 minutes, and the reaction is terminated by adding 1 ml of mixed acid solution (H2 SO4 :H3 PO4 =1:3). Then, the resultant reactive solution is added with 25 μl of 3% aqueous diacetylmonooxim solution, heated at 100° C. for 20 minutes under a light-shielded condition, left to cool under a room temperature for 30 minutes, and then the amount of the citrulline yield is measured quantitatively by measuring the absorbence at 490 nm. The activity of arginine deiminase producing 1 μmol of citrulline in one minute is defined as 1 unit.\nv) Km value and Vmax value\nBy the Lineweaver-Burk plot analysis Km and Vmax were determined as 0.2 mM and 50 U/mg, respectively.", "data": [{"protein": "B1", "values": [{"measurement": "Km", "result": 200, "unit": "µM"}]}]}
